Among the data in publication PMC8579703 are Kd values, retold here.

In the assay the target is neonatal Fc Receptor, FcRn (UniProt P55899). The assay can be described thus: SPR.

As a reminder, the Kd is a measure of binding affinity in units of concentration. High values mean weaker binding, low ones tighter binding. With “ACE2-IgG4-Fc fusion construct 1 (ACE2 Q18-G732 wildtype fused to IgG4-Fc S228P) (from UniProt Q9BYF1 18-732)”, the Kd worked out at 2.9 µM.

“ACE2-IgG4-Fc fusion construct 3 (ACE2 Q18-G732 H374N/H378N fused to IgG4-Fc S228P) (from UniProt Q9BYF1 18-732)” registered a Kd of 3.9 µM.
